{
  "source": "patent US20100034826A1",
  "about": "(Bristol-Myers Squibb, published 2010)",
  "key": {"[1]": {"molecular_target": "T1, human PTK7, full length, on the cell surface (human, UniProt Q13308 31-1070)", "T1 sequence": "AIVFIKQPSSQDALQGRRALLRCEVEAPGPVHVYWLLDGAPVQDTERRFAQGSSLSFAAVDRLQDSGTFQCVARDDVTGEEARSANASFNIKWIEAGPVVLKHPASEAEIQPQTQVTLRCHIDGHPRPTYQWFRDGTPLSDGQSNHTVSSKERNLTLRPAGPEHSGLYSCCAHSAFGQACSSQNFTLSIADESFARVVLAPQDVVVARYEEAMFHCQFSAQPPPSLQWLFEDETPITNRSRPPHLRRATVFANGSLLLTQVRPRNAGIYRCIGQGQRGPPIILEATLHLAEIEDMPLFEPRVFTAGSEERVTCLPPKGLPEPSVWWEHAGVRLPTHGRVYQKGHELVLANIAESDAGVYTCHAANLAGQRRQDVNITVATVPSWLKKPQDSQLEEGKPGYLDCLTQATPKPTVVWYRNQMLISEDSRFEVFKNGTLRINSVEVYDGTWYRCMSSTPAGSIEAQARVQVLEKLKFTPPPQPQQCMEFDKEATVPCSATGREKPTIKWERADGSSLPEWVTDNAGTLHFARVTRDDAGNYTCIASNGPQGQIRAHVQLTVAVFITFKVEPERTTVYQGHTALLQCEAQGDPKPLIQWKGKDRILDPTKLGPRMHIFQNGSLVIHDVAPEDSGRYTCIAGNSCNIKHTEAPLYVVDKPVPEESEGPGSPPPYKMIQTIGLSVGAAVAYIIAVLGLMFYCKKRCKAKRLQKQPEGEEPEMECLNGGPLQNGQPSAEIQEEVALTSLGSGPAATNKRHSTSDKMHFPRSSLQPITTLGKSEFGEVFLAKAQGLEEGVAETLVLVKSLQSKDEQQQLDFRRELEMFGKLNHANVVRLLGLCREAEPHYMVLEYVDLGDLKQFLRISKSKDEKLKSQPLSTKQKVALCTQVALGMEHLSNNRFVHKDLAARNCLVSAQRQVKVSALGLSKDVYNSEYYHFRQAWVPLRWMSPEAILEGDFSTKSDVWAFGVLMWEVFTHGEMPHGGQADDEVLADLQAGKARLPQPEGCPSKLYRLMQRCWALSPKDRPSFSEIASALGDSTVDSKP", "assay": "cell-based or functional assay"}, "[2]": {"molecular_target": "T1, human PTK7, full length, on the cell …", "assay": "flow cytometry on Wilms' tumor G-401 cells, antibody from 30 µg/ml in 1:10 dilutions", "method": "The nephroblastoma Wilms' tumor cell line G-401 (ATCC Acc No. CRL-1441) was tested for binding of the HuMAb anti-PTK7 human monoclonal antibodies 12C6 and 7C8 at different concentrations. Binding of the anti-PTK7 human monoclonal antibodies was assessed by incubating 1×10⁵ cells with antibody at a starting concentration of 30 μg/ml and serially diluting the antibody at a 1:10 dilution. The cells were washed and binding was detected with a PE-labeled anti-human IgG Ab. Flow cytometric analyses were performed using a FACScan flow cytometry (Becton Dickinson, San Jose, Calif.). The anti-PTK7 monoclonal antibodies 12C6 and 7C8 bound to the nephroblastoma Wilms' tumor cell line in a concentration dependent manner, as measured by the mean fluorescent intensity (MFI) of staining."}, "[3]": {"molecular_target": "T2, recombinant extracellular domain of PTK7 (human, UniProt Q13308 31-704)", "T2 construct": "also called PTK7 extracellular domain", "T2 sequence": "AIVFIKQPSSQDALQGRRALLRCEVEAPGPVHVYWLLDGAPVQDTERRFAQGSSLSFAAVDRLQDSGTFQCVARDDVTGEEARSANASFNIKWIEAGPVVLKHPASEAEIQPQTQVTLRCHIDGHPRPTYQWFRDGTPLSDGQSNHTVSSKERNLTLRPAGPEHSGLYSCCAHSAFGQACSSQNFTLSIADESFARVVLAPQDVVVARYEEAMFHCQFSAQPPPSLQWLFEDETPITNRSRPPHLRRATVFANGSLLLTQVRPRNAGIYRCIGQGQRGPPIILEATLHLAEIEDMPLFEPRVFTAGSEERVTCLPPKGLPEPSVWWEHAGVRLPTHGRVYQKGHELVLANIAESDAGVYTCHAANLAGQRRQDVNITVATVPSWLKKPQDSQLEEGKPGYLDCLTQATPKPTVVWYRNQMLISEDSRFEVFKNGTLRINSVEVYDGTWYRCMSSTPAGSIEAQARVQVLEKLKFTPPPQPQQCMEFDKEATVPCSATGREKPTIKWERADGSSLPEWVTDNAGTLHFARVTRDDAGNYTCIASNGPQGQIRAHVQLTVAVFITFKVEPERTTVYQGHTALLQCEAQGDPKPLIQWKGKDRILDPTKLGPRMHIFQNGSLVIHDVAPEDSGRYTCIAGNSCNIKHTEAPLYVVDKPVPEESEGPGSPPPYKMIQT", "assay": "ELISA on recombinant extracellular domain of PTK7, antibody from 10 µg/ml in 1:2 dilutions", "method": "(§1) Recombinant extracellular domain of PTK7 was tested for binding against the anti-PTK7 human monoclonal antibodies 3G8, 4D5, 12C6 and 12C6a at different concentrations. Standard ELISA procedures were performed. The anti-PTK7 human monoclonal antibodies were added at a starting concentration of 10 μg/ml and serially diluted at a 1:2 dilution. Goat-anti-human IgG (kappa chain-specific) polyclonal antibody conjugated with horseradish peroxidase (HRP) was used as secondary antibody. Each of the anti-PTK7 human monoclonal antibodies 3G8, 4D5, 12C6 and 12C6a bound to PTK7."}, "[4]": {"molecular_target": "T1, human PTK7, full length, on the cell …", "assay": "flow cytometry on cancer cell lines that express cell surface PTK7, antibody at 10 µg/ml, MFI", "method": "Binding of the 3G8, 12C6a, 4D5 and 12C6 anti-PTK7 human monoclonal antibodies to a panel of cancer cell lines was assessed by incubating cancer cell lines with anti-PTK7 human monoclonal antibodies at a concentration of 10 μg/ml. […] An isotype control antibody was used as a negative control. The cells were washed and binding was detected with a FITC-labeled anti-human IgG Ab. Flow cytometric analyses were performed using a FACScan flow cytometry (Becton Dickinson, San Jose, Calif.)."}, "[5]": {"molecular_target": "T2, recombinant extracellular domain of PTK7", "assay": "ELISA on recombinant PTK7 extracellular domain, HRP anti-human IgG (kappa) detection", "method": "as §1"}},
  "data": [
    {"binder": "anti-PTK7 human monoclonal antibody 7C8 (antibody, V domains shown, Human IgG with kappa light chain, made by a hybridoma; also called 7CS) VH: QVQLVESGGGVVQPGRSLRLSCAASGFTFSSYGMHWVRQAPGKGLEWVAVIWDDGSNKYYVDSVKGRFTISRDNSKNTLYLQMNSLRAEDTAVYYCARDDYYGSGSFNSYYGTDVWGQGTTVTVSS VL: EIVLTQSPATLSLSPGERATLSCRASQSVSIYLAWYQQKPGQAPRLLIYDASNRATGIPARFSGSGSGTDFTLTISSLEPEDFAVYYCQQRSNWPPFTFGPGTKVDIK", "values": [
      {"measurement": "EC50, Hum-Zap internalization assay (3H-thymidine incorporation), A-431 cells", "setting": "[1]", "result": 0.183, "unit": "nM"},
      {"measurement": "EC50, Hum-Zap internalization assay (3H-thymidine incorporation), PC3 tumor cells", "setting": "[1]", "result": 0.265, "unit": "nM"},
      {"measurement": "EC50, Hum-Zap internalization assay (3H-thymidine incorporation), Wilms' tumor cells", "setting": "[1]", "result": 0.179, "unit": "nM"},
      {"measurement": "EC50", "setting": "[2]", "result": 3.43, "unit": "nM"}
    ]},
    {"binder": "anti-PTK7 human monoclonal antibody 3G8 (antibody, V domains shown) VH: QVQLVESGGGVVQPGRSLRLSCAASGFIFSNYAMHWVRQAPGKGLEWVAVISYDGNNKYYADSVKGRFTISRDNSKNTLYLQMNSLRAEDTAVYYCAREVWSIDNWGQGTLVTVSS VL: DIQMTQSPSSLSASVGDRVTITCRASQGISSWLAWYQQKPEKAPKSLIYAASSLQSGVPSRFSGSGSGTDFTLTISSLQPEDFATYYCQQYNSYPRTFGQGTKVEIK", "values": [
      {"measurement": "EC50, Hum-Zap internalization assay (3H-thymidine incorporation), Wilms' tumor cells", "setting": "[1]", "result": 0.644, "unit": "nM"}
    ]},
    {"binder": "anti-PTK7 human monoclonal antibody 12C6a (antibody, V domains shown, Human IgG with kappa light chain, made by a hybridoma; Same VH as 12C6) VH: EVQLVQSGGGLVHPGGSLRLSCAGSGFTFSTYLMYWVRQAPGKTLEWVSAIGSGGDTYYADSVKGRFTISRDNAKNSLYLQMNSLRAEDMAVYYCARGLGYWGQGTLVTVSS VL: DIQMTQSPSSLSASVGDRVTITCRASQGISSWLAWYQQKPEKAPKSLIYAASSLQSGVPSRFSGSGSGTDFTLTISSLQPEDFATYYCQQYNSYPYTFGQGTKLEIK", "values": [
      {"measurement": "binding result", "setting": "[3]", "result": "binds"},
      {"measurement": "binding result", "setting": "[4]", "result": "binds"}
    ]},
    {"binder": "anti-PTK7 human monoclonal antibody 4D5 (antibody, V domains shown) VH: QVQLVESGGGVVQPGRSLRLSCAASGFTFSSYAFHWVRQAPGKGLEWVAVISYDGSIKYYADSVKGRFTISRDNSKNTLYLQMNSLRAEDTAVYYCARTYYFDYWGQGTLVTVSS VL: EIVLTQSPDFQSVTPKEKVTITCRASQSIGSSLHWYQQKPDQSPKLLIKYASQSFSGVPSRFSGSGSGTDFTLTINSLEAEDAAAYYCHQSSSLPITFGQGTRLEIK", "values": [
      {"measurement": "EC50, Hum-Zap internalization assay (3H-thymidine incorporation), Wilms' tumor cells", "setting": "[1]", "result": 0.252, "unit": "nM"}
    ]},
    {"binder": "anti-PTK7 human monoclonal antibody 12C6 (antibody, V domains shown, Human IgG with kappa light chain, made by a hybridoma) VH: EVQLVQSGGGLVHPGGSLRLSCAGSGFTFSTYLMYWVRQAPGKTLEWVSAIGSGGDTYYADSVKGRFTISRDNAKNSLYLQMNSLRAEDMAVYYCARGLGYWGQGTLVTVSS VL: not shown", "values": [
      {"measurement": "EC50, Hum-Zap internalization assay (3H-thymidine incorporation), A-431 cells", "setting": "[1]", "result": 166, "unit": "nM"},
      {"measurement": "EC50, Hum-Zap internalization assay (3H-thymidine incorporation), PC3 tumor cells", "setting": "[1]", "result": 0.318, "unit": "nM"},
      {"measurement": "EC50, Hum-Zap internalization assay (3H-thymidine incorporation), Wilms' tumor cells", "setting": "[1]", "result": 0.205, "unit": "nM"},
      {"measurement": "EC50", "setting": "[2]", "result": 4.04, "unit": "nM"},
      {"measurement": "EC50 (read off the curve)", "setting": "[5]", "result": "~0.6", "unit": "µg/mL"}
    ]}
  ]
}
